Results reported in US20030021776.

How the values were obtained:
SAN 16A (synthetic) = experiment: EMSA
[1] = system: HUM 17A (VZ+472) (synthetic); experiment: EMSA; conditions: F3 printed RSDNLTZ, listing RSDNLTQ
GATA82Z678 (synthetic) = experiment: EMSA
[2] = system: VOP 30A-4 (VZ+42/+530, mVZ+509) (synthetic); experiment: EMSA; conditions: 170 mM KCl, 1.7 mM MgCl2, Zn
RAT 24A (synthetic) = experiment: EMSA
[3] = system: VG 8A (VZ-475) (synthetic); experiment: EMSA
HP38 4A (synthetic) = experiment: EMSA
Sequence of HP38 4A (synthetic) (chain, as listed by the source): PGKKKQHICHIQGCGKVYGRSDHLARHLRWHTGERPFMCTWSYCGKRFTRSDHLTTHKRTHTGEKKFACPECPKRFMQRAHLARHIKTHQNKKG

VEGF 1D (synthetic) = VEGF 1D (synthetic) (UniProt P08047); experiment: EMSA
VEGF 1* (synthetic) = VEGF 1* (synthetic) (UniProt P08047); experiment: EMSA
VEGF 1A (synthetic) = VEGF 1A (synthetic) (UniProt P08047); experiment: EMSA
[4] = biological target: VEGF 1 (VZ-8) (synthetic) (UniProt P08047); experiment: EMSA
HBV 3 (synthetic) = HBV 3 (synthetic) (UniProt P08047); experiment: EMSA
[5] = biological target: ZEN-7A 1 (VZ-573) (synthetic) (UniProt P08047); experiment: EMSA
VEGF 1C (synthetic) = VEGF 1C (synthetic) (UniProt P08047); experiment: EMSA
[6] = system: PDF 5A (VZ+590) (synthetic); experiment: EMSA
Sequence of PDF 5A (VZ+590) (synthetic) (chain, as listed by the source): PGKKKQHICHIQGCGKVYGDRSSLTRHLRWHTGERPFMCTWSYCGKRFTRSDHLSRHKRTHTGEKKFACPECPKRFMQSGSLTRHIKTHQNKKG

EP10A (synthetic) = experiment: EMSA
Sequence of EP10A (synthetic) (chain, as listed by the source): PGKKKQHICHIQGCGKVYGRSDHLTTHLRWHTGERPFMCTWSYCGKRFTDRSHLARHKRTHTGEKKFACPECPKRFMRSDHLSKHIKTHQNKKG

[7] = system: VG10A/8A-VP16 (synthetic); experiment: cell_activity; conditions: mouse VEGF promoter reporter activation in mouse cells
[8] = system: mVZ+57 (VG10A/8A, MVG) (synthetic); experiment: EMSA; conditions: text printed as Kds of 0.031 nM for the designed ZFPs; 100 mM KCl, 1 mM MgCl2, Zn

Sequence of GATA82Z678 (synthetic) (chain, as listed by the source): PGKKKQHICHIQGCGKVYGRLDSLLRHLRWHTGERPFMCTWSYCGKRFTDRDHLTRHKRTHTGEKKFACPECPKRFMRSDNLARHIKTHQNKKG
Sequence of HUM 17A (VZ+472) (synthetic) (chain, as listed by the source): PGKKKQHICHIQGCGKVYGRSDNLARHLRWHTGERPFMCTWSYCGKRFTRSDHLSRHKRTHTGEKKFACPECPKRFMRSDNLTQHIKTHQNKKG
Sequence of VG 8A (VZ-475) (synthetic) (chain, as listed by the source): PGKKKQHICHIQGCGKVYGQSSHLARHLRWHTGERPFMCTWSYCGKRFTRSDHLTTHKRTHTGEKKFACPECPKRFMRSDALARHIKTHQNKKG
Sequence of SAN 16A (synthetic) (chain, as listed by the source): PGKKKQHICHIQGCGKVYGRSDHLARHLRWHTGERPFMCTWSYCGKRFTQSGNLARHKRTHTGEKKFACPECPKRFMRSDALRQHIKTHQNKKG
Sequence of VOP 30A-4 (VZ+42/+530, mVZ+509) (synthetic) (chain, as listed by the source): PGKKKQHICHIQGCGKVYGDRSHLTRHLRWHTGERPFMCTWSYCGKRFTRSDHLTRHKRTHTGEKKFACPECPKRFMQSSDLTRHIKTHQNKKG
Sequence of RAT 24A (synthetic) (chain, as listed by the source): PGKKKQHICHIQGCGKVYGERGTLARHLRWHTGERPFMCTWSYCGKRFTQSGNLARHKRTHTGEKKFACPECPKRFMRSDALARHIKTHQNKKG

Sequence: AKGGAAGGG (double strand) [SAN 16A target]
- Kd (SAN 16A (synthetic)): 1.03 nM

Sequence: ARGGGGGAG (double strand) [HUM 17A target]
- Kd [1]: < 0.02 nM

Sequence: GAGKGKGYG (double strand) [GATA82Z678 target]
- Kd (GATA82Z678 (synthetic)): 1.8 nM

Sequence: GCTGGGGGCK (double strand) [VZ+42/+530 target]
- Kd [2]: < 0.02 nM

Sequence: GDGGAAGHC (double strand) [RAT 24A target]
- Kd (RAT 24A (synthetic)): < 0.02 nM

Sequence: GDGTGGGGN (double strand) [VG 8A target]
- Kd [3]: 0.35 nM

Sequence: GGDTGGGGG (double strand) [HP38 4A target]
- Kd (HP38 4A (synthetic)): 0.74 nM

Sequence: GGGGAGGMT (double strand) [VEGF 1D target]
- Kd (VEGF 1D (synthetic)): 2 nM

Sequence: GGGGAGGVK (double strand) [VEGF 1 / 1* / 1A target]
- Kd (VEGF 1* (synthetic)): 3 nM
- Kd (VEGF 1A (synthetic)): 0.2 nM
- Kd [4]: 2.83 nM

Sequence: GGGGGAGGW (double strand) [HBV 3 target]
- Kd (HBV 3 (synthetic)): 30 nM

Sequence: GGGGGHGCT (double strand) [ZEN-7A 1 target]
- Kd [5]: 0.63 nM

Sequence: GGGGVGGAT (double strand) [VEGF 1C target]
- Kd (VEGF 1C (synthetic)): 1 nM

Sequence: GYAGGGGCC (double strand) [PDF 5A target]
- Kd [6]: 0.23 nM

Sequence: KGGGGCTGG (double strand) [EP10A target]
- Kd (EP10A (synthetic)): 0.35 nM

Sequence: TGAGCGGCGGCAGCGGAG (double strand) [VG10A/8A target]
- activity [7]: 29 fold

Sequence: TGAGCGGCGGCAGCGGAGC (double strand) [mVZ+57 target]
- Kd [8]: < 0.031 nM
